The source of these data is the supplement of paper PMC7125110.

± gives the standard error. This sample holds only a part of the variants without activity. Some results are limits rather than exact numbers.

The labels stand for the following.
B1: glmS ribozyme (parent)
chain: AUAAAAGCGCCAGAACUACAGAAAUGUAGUUGACGAGGAGGAGGUUUAUCGAAUUUUCGGCGGAUGCCUCCAAA

What all share (conditions): with glucosamine-6-phosphate
Variants of B1 are the subject of data set [1]. Briefly: self-cleavage kobs at 40 uM GlcN6P; higher = faster cleavage; RNA array. The essentials:
(§1)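 kcat and KM were obtained from weighted Michaelis–Menten fits across concentrations of kobs values. Those came from one- or two-exponential decay fits to per-tile medians normalised to baseline and to non-cleaving reference variants. The variants were barcoded ribozymes transcribed in situ by E. coli RNA polymerase on sequenced MiSeq chips and tracked through a hybridised Cy3 probe at 37 °C, with 40 μM to 10 mM glucosamine-6-phosphate in HEPES/KCl/Mg(OAc)2 buffer flowed in.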

In data set [2] the parent is B1. Briefly: self-cleavage kobs at 160 uM GlcN6P; higher = faster cleavage; RNA array. In a few lines:
as §1

In data set [3] the parent is B1. Briefly: self-cleavage kobs at 640 uM GlcN6P; higher = faster cleavage; RNA array. In a few lines: as §1
In data set [4] the parent is B1. Nature of the data set: self-cleavage kobs at 10000 uM GlcN6P; higher = faster cleavage; RNA array. In a few lines: as §1
Data set [5] covers variants of B1. Nature of the data set: self-cleavage kobs at 2500 uM GlcN6P; higher = faster cleavage; RNA array. The essentials:
as §1

Take AUAAACCCGCCAGAACUACAGAAAUGUAGUUGACGAGGCGCAGGUUUAUCGAAUUUUCGGUGGAUGCCUCCAAA: in the data set with glucosamine-6-phosphate [1], the “self-cleavage kobs at 40 uM GlcN6P” value is < 1e-05 s⁻¹.
Regarding AUAAAAUCGCCAGAACUACAGAAAUGUAGUUGACGAGGAGGAGGUUUAUCGAAUUUUCGCCGGAUGCCUCCAAA, the “self-cleavage kobs at 40 uM GlcN6P” value with glucosamine-6-phosphate [1] is < 1e-05 s⁻¹. Further, the “self-cleavage kobs at 160 uM GlcN6P” value with glucosamine-6-phosphate [2] is < 1e-05 s⁻¹. Also, in the data set with glucosamine-6-phosphate [3], the “self-cleavage kobs at 640 uM GlcN6P” value was < 1e-05 s⁻¹. Also, the “self-cleavage kobs at 10000 uM GlcN6P” value with glucosamine-6-phosphate [4] is < 1e-05 s⁻¹.
As for AUAAAAGCGCCAGAAUUACAGAAAUGUAGUUGACGAGGAGGAGGUUUAUCGAUUUUUCGGCGGAUGCCUCCAAA, in the data set with glucosamine-6-phosphate [1], the “self-cleavage kobs at 40 uM GlcN6P” value is 0.00056 ± 5.9e-05 s⁻¹. Also, the “self-cleavage kobs at 160 uM GlcN6P” value with glucosamine-6-phosphate [2] came out at 0.000815 ± 0.00015 s⁻¹. Besides, the “self-cleavage kobs at 640 uM GlcN6P” value with glucosamine-6-phosphate [3] is 0.00552 ± 0.00076 s⁻¹. The “self-cleavage kobs at 2500 uM GlcN6P” value with glucosamine-6-phosphate [5] was 0.00594 ± 0.0012 s⁻¹. Further, in the data set with glucosamine-6-phosphate [4], the “self-cleavage kobs at 10000 uM GlcN6P” value stood at 0.0301 ± 0.0055 s⁻¹.
Regarding AUAAAAGUGCCAGAACUACAGAAAUGUAGUUGACGAGGAGGAGGUUUGUCGAAUUUUCGGCGGAUGCCUCCAAA, in the data set with glucosamine-6-phosphate [1], the “self-cleavage kobs at 40 uM GlcN6P” value is < 1e-05 s⁻¹. Moreover, the “self-cleavage kobs at 160 uM GlcN6P” value with glucosamine-6-phosphate [2] is < 1e-05 s⁻¹. Further, the “self-cleavage kobs at 2500 uM GlcN6P” value with glucosamine-6-phosphate [5] is < 1e-05 s⁻¹. Further, the “self-cleavage kobs at 10000 uM GlcN6P” value in the data set with glucosamine-6-phosphate [4] is < 1e-05 s⁻¹.
Regarding AUAAAAGCGCCAGAACUACAGAAAUGUAGUUGACGAGGAGGAAGUUUAUCGAAUUUUGGGCGGAUGCCUCCAAA, the “self-cleavage kobs at 40 uM GlcN6P” value in the data set with glucosamine-6-phosphate [1] is < 1e-05 s⁻¹. For the same variant, in the data set with glucosamine-6-phosphate [2], the “self-cleavage kobs at 160 uM GlcN6P” value was < 1e-05 s⁻¹. Moreover, in the data set with glucosamine-6-phosphate [3], the “self-cleavage kobs at 640 uM GlcN6P” value was < 1e-05 s⁻¹. In addition, the “self-cleavage kobs at 2500 uM GlcN6P” value with glucosamine-6-phosphate [5] is < 1e-05 s⁻¹. Further, the “self-cleavage kobs at 10000 uM GlcN6P” value with glucosamine-6-phosphate [4] is < 1e-05 s⁻¹.
AUAAAAGCGCCAGAACUACAGAAAUGUAGUUGACGAGGAGGAGGUUUAUCGGAUUUUCGGCGGAUCCCUCCAAA: the “self-cleavage kobs at 40 uM GlcN6P” value with glucosamine-6-phosphate [1] was < 1e-05 s⁻¹. The “self-cleavage kobs at 2500 uM GlcN6P” value with glucosamine-6-phosphate [5] is 4.69e-05 ± 1.5e-05 s⁻¹.
For the variant AUAAAAGCGCCAGAACUACAGAAAUGUAGUUGACGAGGGGGAGGUUUACCGGAUUUUCGGCGUAUGCGUCCAAA, in the data set with glucosamine-6-phosphate [1], the “self-cleavage kobs at 40 uM GlcN6P” value was < 1e-05 s⁻¹.
Consider AUAAAAGCGCCAGAACUACAGAAAUGUAGUUGACGAGGAGGAGGAUUAUCGAAUAUUCGGCGGAUGCCUCCAAA, for which, in the data set with glucosamine-6-phosphate [1], the “self-cleavage kobs at 40 uM GlcN6P” value worked out at 0.00151 ± 0.00018 s⁻¹. Moreover, the “self-cleavage kobs at 640 uM GlcN6P” value with glucosamine-6-phosphate [3] amounted to 0.00993 ± 0.0023 s⁻¹. Besides, the “self-cleavage kobs at 2500 uM GlcN6P” value with glucosamine-6-phosphate [5] worked out at 0.00931 ± 0.0037 s⁻¹. Moreover, the “self-cleavage kobs at 10000 uM GlcN6P” value with glucosamine-6-phosphate [4] stood at 0.09 ± 0.031 s⁻¹.
For the variant AUAAAAGCGCCAAAUCUACAGAAAUGUAGUUGACGAGGAGUAGGUUUAUAGAAAUUCCGGCGGAUGCCUCCAAA, the “self-cleavage kobs at 40 uM GlcN6P” value in the data set with glucosamine-6-phosphate [1] is < 1e-05 s⁻¹. Further, in the data set with glucosamine-6-phosphate [4], the “self-cleavage kobs at 10000 uM GlcN6P” value was < 1e-05 s⁻¹.
As for AUAAAAGGGCCAGAACUACAGAAAUGUAGUUGACGAGGAGGAGGAUUAUCGAAUUUUCGGCGGAUGCCUCCAAA, the “self-cleavage kobs at 40 uM GlcN6P” value with glucosamine-6-phosphate [1] is < 1e-05 s⁻¹. The “self-cleavage kobs at 160 uM GlcN6P” value in the data set with glucosamine-6-phosphate [2] is < 1e-05 s⁻¹. Besides, in the data set with glucosamine-6-phosphate [3], the “self-cleavage kobs at 640 uM GlcN6P” value is < 1e-05 s⁻¹. Also, the “self-cleavage kobs at 10000 uM GlcN6P” value with glucosamine-6-phosphate [4] was < 1e-05 s⁻¹.
As for AUAAAAGCGCCAGAACUACAGAAAUGUAGUUAACAAGGAGGAGGUUUAUCGAAUUUUCGGCGGAUGCCUCCAAA, the “self-cleavage kobs at 40 uM GlcN6P” value with glucosamine-6-phosphate [1] is < 1e-05 s⁻¹. The “self-cleavage kobs at 160 uM GlcN6P” value with glucosamine-6-phosphate [2] was < 1e-05 s⁻¹. Moreover, in the data set with glucosamine-6-phosphate [3], the “self-cleavage kobs at 640 uM GlcN6P” value was < 1e-05 s⁻¹. For the same variant, the “self-cleavage kobs at 2500 uM GlcN6P” value with glucosamine-6-phosphate [5] was < 1e-05 s⁻¹. For the same variant, the “self-cleavage kobs at 10000 uM GlcN6P” value with glucosamine-6-phosphate [4] is < 1e-05 s⁻¹.
Take AUAAAAGCGCGAGGACUACAGAAAUGUAGUUGACGAGGUGGAGGUUUAUCGAAUUUUCGGCGGAUGCCUCCAAA: the “self-cleavage kobs at 40 uM GlcN6P” value in the data set with glucosamine-6-phosphate [1] is < 1e-05 s⁻¹.
As to AUAAAAGCGCCAGAACUACAGAAAUGUAAUUGACGAGGAGGAGGUUUAUCGAUUUUUGGGCGGAUGCCUCCAAA, the “self-cleavage kobs at 40 uM GlcN6P” value in the data set with glucosamine-6-phosphate [1] is < 1e-05 s⁻¹. In addition, the “self-cleavage kobs at 10000 uM GlcN6P” value in the data set with glucosamine-6-phosphate [4] was 5.28e-05 ± 2.2e-05 s⁻¹.
